Test results from PMC5095173, “Disulfide-activated protein kinase G Iα regulates cardiac diastolic relaxation and fine-tunes the Frank–Starling response” (Nature Communications, 2016).
Blank lines part the entries; values can stand above or below the substance they belong to.

Key:
[1] = molecular target: PKGIα (WT mouse heart) (mouse (endogenous in mouse heart)) (UniProt P0C605); assay: cross-linking; intermolecular disulfide dimer of PKGIα in perfused mouse hearts (0 or 5 mm Hg EDP), homogenised with 100 mM maleimide, SDS-PAGE without reducing agent and immunoblot
[2] = molecular target: Cardiac phospholamban (rat heart homogenate) (rat (endogenous in rat left ventricle)) (UniProt P61016)
Chain of Cardiac phospholamban (rat heart homogenate) (rat (endogenous in rat left ventricle)) (P61016 whole entry): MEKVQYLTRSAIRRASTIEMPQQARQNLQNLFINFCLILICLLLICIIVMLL

[3] = molecular target: PKGIα M438G (analogue-sensitive mutant), disulfide dimer (human); assay: cross-linking; intermolecular Cys42 disulfide of purified recombinant PKGIα (lipoic acid or air oxidation) seen as dimer by SDS-PAGE
C42S PKGIα (human) = assay: ITC; PLN (1–23) (700 μM) titrated into the cell containing WT disulfide PKGIα or the C42S mutant (70 μM); 25 °C; 50 mM sodium phosphate buffer pH 7.4, 100 mM NaCl; no cyclic nucleotide

Chain of PKGIα (WT mouse heart) (P0C605 2-671): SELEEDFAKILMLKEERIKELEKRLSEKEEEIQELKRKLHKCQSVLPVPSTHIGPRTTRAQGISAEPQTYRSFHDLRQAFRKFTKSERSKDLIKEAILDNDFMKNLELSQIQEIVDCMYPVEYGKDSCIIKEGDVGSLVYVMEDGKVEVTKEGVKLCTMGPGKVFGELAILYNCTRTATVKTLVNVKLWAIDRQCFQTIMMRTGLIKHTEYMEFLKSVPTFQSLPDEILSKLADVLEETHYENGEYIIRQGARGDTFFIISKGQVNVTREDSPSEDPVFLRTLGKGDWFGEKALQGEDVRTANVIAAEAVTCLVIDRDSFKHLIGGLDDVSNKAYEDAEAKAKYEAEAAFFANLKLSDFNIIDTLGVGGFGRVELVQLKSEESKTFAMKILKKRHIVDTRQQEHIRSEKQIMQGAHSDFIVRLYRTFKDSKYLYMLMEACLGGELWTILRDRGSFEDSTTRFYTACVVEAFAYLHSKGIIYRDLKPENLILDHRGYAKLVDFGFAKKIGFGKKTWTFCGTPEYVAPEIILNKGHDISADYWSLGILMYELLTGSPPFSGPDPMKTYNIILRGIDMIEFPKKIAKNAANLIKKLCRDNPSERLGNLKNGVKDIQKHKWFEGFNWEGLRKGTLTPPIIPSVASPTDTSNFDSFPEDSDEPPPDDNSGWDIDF
Chain of N-terminally acetylated peptide of the N-terminal cytoplasmic domain of human phospholamban, PLN (amino acid 1-23) (P26678 1-23): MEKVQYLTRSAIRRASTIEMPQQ

stoichiometry N [1]: 2
Substance: PKGIα (WT mouse heart) (from UniProt P0C605 1-671) (enzyme)

log2 fold change in abundance of the PLN pSer16 phosphopeptide (thiophosphorylation in rat heart homogenate), disulfide-activated PKGIα M438G versus basal PKGIα C42S/M438G control (log2 fold change) [2]: 0.41
stoichiometry N [3]: 2
Substance: PKGIα M438G (analogue-sensitive mutant), disulfide dimer (enzyme)

fold change of Kd against WT PKGIα disulfide dimer (C42S PKGIα (human)): > 5 fold
Substance: N-terminally acetylated peptide of the N-terminal cytoplasmic domain of human phospholamban, PLN (amino acid 1-23) (from UniProt P26678 1-23)
